Results: patent publication US20260232831A1 (FRONTAIM BIOMEDICINES, published 2026)
Positions count from the first letter of the chain named.

T1: human Trop2 on the cell surface (A-431, ME-180, MDA-MB-468 cells) (human, UniProt P09758 27-323)
T1 sequence (looked up): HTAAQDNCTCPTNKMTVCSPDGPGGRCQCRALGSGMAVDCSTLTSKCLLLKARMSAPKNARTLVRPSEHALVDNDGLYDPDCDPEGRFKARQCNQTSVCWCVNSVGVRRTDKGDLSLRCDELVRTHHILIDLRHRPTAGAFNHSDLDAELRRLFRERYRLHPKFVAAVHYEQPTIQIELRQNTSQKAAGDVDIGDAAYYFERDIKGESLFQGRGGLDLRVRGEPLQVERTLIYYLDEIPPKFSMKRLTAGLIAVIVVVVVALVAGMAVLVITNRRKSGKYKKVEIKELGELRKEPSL

B1: bispecific antibody 3scFv×hL0125C (bispecific antibody)
heavy: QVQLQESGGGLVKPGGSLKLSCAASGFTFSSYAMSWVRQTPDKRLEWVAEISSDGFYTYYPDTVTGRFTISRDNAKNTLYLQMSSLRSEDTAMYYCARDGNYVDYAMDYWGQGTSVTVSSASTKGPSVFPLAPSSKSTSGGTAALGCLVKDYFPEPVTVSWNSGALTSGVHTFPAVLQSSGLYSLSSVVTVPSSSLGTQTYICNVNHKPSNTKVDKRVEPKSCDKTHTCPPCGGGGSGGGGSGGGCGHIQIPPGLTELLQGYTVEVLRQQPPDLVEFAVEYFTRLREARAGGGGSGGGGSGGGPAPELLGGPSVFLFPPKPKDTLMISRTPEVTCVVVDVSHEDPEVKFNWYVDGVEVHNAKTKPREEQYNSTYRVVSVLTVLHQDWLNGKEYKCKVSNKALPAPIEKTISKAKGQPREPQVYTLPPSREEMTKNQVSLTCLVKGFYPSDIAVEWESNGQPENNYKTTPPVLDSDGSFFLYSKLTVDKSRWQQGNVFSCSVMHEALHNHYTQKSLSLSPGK
light: DIQLTQSPAIMSASPGERVTMTCRASSSVSSSYLHWYQQRSGQSPKLLIYSTSNLASGVPARFSGSGSGTDYSLTISSLEAEDAATYYCQQYSGSPLTFGSGTKLEIKRTVAAPSVFIFPPSDEQLKSGTASVVCLLNNFYPREAKVQWKVDNALQSGNSQESVTEQDSKDSTYSLSSTLTLSKADYEKHKVYACEVTHQGLSSPVTKSFNRGEC
scFv: not shown
modifications: The AD2 of the scFv is docked on the DDD2 dimer and locked by disulfide bonds; the complex holds 2 heavy chains, 2 light chains and 1 scFv.
notes: hL0125 IgG with DDD2 inserted in the hinge of each heavy chain; The DDD2 dimer docks the AD2 of one anti-CD3 scFv (3scFv), giving a 2+1 format assembled intracellularly; also called Construct C; Format C
B2: humanized anti-Trop2 antibody hL0125 (antibody, V domains shown)
VL: DIQLTQSPAIMSASPGERVTMTCRASSSVSSSYLHWYQQRSGQSPKLLIYSTSNLASGVPARFSGSGSGTDYSLTISSLEAEDAATYYCQQYSGSPLTFGSGTKLEIKR
VH: QVQLQESGGGLVKPGGSLKLSCAASGFTFSSYAMSWVRQTPDKRLEWVAEISSDGFYTYYPDTVTGRFTISRDNAKNTLYLQMSSLRSEDTAMYYCARDGNYVDYAMDYWGQGTSVTVSS
notes: Variable regions were cloned into human IgG expression vectors to give a full-size humanized IgG; also called modular antibody hL0125
B3: chimeric anti-Trop2 antibody cL0125 (antibody, V domains shown)
VH: VKLQESGGGLVKPGGSLKLSCAASGFTFSSYAMSWVRQSPEKRLEWVAEISSDGFYTYYPDTVTGRFTISRDNAKNTLYLEMSSLRSEDTAMYYCARDGNYVDYAMDYWGQGTSVTVSS
VL: B2 VL with R18K, Q43A, L48W, D71S, L79V
notes: Chimeric antibody made from the murine L0125 VL and VH

Key:
[1] = target: T1, human Trop2 on the cell surface (A-431, …); experiment: cell-based or functional assay
[2] = target: T1, human Trop2 on the cell surface (A-431, …); experiment: flow cytometry on ME-180 cells, AF488 goat anti-human IgG Fc detection
Protocol: For CD3 binding, Jurkat cells were dispensed into a 96-well plate at 2×10⁵/well, and incubated with indicated agents at 4° C. for 45 min. After wash with PBS, cells were incubated with AF488 labeled goat anti-human IgG Fe. For Trop2 binding, ME-180 cells were dissociated from culture, dispensed into a 96-well plate at 2×10⁵/well, and incubated with indicated agents at 4° C. for 45 min. After wash with PBS, cells were incubated with AF488 labeled goat anti-human IgG Fc. Binding was analyzed by low cytometry using Attune N×T Flow Cytometer.
After wash with PBS, cells were incubated with a AF488 labeled goat anti-human IgG Fc secondary antibody at 4° C. for another 45 min. After two wash steps, binding was analyzed by flow cytometry using Attune N×T Flow Cytometer.

[3] = target: T1, human Trop2 on the cell surface (A-431, …); experiment: flow cytometry on A-431 cells, AF488 goat anti-human IgG Fc detection
Protocol: All incubations were 45 min at 4° C. plus washes with 1% BSA in PBS between incubations. Binding signal was measured by Attune™ N×T Acoustic Focusing Cytometer (ThermoFisher Scientific).

[4] = target: T2, human CD3 on Jurkat cell surface (human, UniProt P07766 23-207); experiment: flow cytometry on Jurkat cells, AF488 goat anti-human IgG Fc detection
T2 construct: whole, on cells; also called cell surface CD3 of Jurkat
T2 sequence (P07766 23-207): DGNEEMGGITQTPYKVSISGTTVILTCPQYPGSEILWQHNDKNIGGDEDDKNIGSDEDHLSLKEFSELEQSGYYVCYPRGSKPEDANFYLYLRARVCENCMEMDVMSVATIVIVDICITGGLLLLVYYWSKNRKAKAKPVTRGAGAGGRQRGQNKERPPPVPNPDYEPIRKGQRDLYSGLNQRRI
Protocol: For CD3 binding, Jurkat cells were dispensed into a 96-well plate at 2×10⁵/well, and incubated with indicated agents at 4° C. for 45 min. After wash with PBS, cells were incubated with AF488 labeled goat anti-human IgG Fc. […] After wash with PBS, cells were incubated with AF488 labeled goat anti-human IgG Fe.
After wash with PBS, cells were incubated with a AF488 labeled goat anti-human IgG Fc secondary antibody at 4° C. for another 45 min.

| Binder | IC50, 60-hour MTS viability assay, BT-474 cells with human PBMCs (10:1) [1] | IC50, 60-hour MTS viability assay, HCT116 cells with human PBMCs (10:1) [1] | IC50, 60-hour MTS viability assay, MDA-MB-231 cells with human PBMCs (10:1) [1] | IC50, 60-hour MTS viability assay, MDA-MB-468 cells with human PBMCs (10:1) [1] | EC50 (read off the curve) [2] | EC50 (read off the curve) [3] | binding result [4] |
| --- | --- | --- | --- | --- | --- | --- | --- |
| B1 | ~0.02 nM | ~0.018 nM | ~0.013 nM | ~0.006 nM | ~10 nM | – | – |
| B2 | – | – | – | – | ~6 nM | ~10 nM | no binding (tested: 20.0 nM) |
| B3 | – | – | – | – | – | ~10 nM | – |
